Residue numbers refer to the chain shown, from its start. In names and notes the source's numbering stands. One block for each binder: values may come before it.
Tests used:
[1] = target: T1, human VLA4-Fc (alpha4-Fc/beta1-Fc heterodimer) (human); experiment: ELISA, VLA4-Fc coated, 1 mM MnCl2; from EC50 values
T1 construct: Soluble heterodimer from CHO cells, Protein A purified; also called VLA-Fc
Experimental: The relative binding affinities of various 2D-VCAM-1 variants to immobilized VLA4-Fc (α4-β1-Fc) heterodimer, relative to a control protein (e.g., Q38L-2D-VCAM-1 or to human 2D-VCAM-1), were deter using a solid-phase ELISA assay. MAXISORP™ ELISA plates (NUNC) were coated overnight at 4° C. with 50 ul VLA4-Fc heterodimer, 2 ug/ml in TBS-M (TBS (25 mM Tris-HCl pH 7.5, 150 mM NaCl) with 1 mM MnCl2), washed with TBS-T (TBS with 0.05% TWEEN-20), blocked with 200 ul 3% milk in TBS-M for 1 h at room temperature, and washed again with TBS-T. A four-fold dilution series of the purified 2D-VCAM variants to be assayed was made in COSTAR U-bottom plates in TBS-TMC (TBS with 0.05% Tween-20, 1 mM MnCl2, and 1% casein; Sigma) with a starting concentration of 8.2 uM (200 ug/ml). The dilution series was transferred into the ELISA plate which was incubated at room temperature for 2 h and subsequently washed with TBS-T. Bound 2D-VCAM protein was detected by incubation with 0.5 ug/ml of biotinylated anti-human VCAM antibody (R&D Systems, Catalog No. BAF809) in TBS-TMC for 1 h at room temperature followed by a TBS-MT (TBS plus 1 mM MnCl2 and 0.02% TWEEN-20) wash and subsequent incubation with 1:2000 dilution of streptavidin-HRP (BD Biosciences, Catalog No. 554066) in TBS-TMC for 30 min at room temperature. […] Typical development times ranged from […] and development was stopped by addition of 50 ul 2M H₂SO₄ (EM, Catalog No. SX1244-75). […] Fold-improvement in binding was calculated relative to a control protein (e.g., Q38L-2D-VCAM-1 or human 2D-VCAM-1) assayed on the same plate.

[2] = target: T2, human LPAM-1-Fc (alpha4-Fc/beta7-Fc heterodimer) (human); experiment: SPR (BIACORE), retest with new polypeptide preparations and new LPAM-1-Fc
T2 construct: Soluble heterodimer from CHO cells, Protein A purified
T2 sequence (chain, as listed by the source limits assumed, chain 1 of 2): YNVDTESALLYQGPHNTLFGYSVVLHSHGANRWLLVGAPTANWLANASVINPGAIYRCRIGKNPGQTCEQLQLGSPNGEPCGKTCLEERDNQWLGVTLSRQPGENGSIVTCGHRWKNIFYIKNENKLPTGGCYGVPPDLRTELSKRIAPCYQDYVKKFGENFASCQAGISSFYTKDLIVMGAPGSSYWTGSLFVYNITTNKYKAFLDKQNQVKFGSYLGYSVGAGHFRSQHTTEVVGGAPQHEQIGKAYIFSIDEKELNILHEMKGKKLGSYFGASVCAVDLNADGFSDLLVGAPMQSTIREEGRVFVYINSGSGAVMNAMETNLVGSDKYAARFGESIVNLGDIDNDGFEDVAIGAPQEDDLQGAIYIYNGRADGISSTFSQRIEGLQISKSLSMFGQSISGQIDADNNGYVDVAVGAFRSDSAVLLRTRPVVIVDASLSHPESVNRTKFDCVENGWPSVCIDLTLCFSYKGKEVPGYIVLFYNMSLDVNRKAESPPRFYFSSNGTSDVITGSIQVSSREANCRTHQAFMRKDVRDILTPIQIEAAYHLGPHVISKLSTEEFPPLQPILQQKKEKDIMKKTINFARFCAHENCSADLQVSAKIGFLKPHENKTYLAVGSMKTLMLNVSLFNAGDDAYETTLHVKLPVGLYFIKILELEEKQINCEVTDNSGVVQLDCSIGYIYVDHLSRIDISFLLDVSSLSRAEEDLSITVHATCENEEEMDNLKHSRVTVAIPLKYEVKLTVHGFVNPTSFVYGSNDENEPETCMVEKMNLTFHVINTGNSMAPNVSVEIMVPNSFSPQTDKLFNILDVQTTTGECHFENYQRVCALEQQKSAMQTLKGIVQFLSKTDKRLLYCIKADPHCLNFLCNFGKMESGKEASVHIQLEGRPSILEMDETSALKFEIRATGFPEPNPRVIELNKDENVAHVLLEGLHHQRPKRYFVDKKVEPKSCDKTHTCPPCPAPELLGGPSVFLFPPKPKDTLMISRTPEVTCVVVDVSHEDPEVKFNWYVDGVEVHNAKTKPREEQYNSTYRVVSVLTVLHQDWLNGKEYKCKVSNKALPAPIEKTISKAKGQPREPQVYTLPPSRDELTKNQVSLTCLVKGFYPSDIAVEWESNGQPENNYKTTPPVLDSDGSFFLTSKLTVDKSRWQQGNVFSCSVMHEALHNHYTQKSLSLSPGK
T2 sequence (chain, as listed by the source limits assumed, chain 2 of 2): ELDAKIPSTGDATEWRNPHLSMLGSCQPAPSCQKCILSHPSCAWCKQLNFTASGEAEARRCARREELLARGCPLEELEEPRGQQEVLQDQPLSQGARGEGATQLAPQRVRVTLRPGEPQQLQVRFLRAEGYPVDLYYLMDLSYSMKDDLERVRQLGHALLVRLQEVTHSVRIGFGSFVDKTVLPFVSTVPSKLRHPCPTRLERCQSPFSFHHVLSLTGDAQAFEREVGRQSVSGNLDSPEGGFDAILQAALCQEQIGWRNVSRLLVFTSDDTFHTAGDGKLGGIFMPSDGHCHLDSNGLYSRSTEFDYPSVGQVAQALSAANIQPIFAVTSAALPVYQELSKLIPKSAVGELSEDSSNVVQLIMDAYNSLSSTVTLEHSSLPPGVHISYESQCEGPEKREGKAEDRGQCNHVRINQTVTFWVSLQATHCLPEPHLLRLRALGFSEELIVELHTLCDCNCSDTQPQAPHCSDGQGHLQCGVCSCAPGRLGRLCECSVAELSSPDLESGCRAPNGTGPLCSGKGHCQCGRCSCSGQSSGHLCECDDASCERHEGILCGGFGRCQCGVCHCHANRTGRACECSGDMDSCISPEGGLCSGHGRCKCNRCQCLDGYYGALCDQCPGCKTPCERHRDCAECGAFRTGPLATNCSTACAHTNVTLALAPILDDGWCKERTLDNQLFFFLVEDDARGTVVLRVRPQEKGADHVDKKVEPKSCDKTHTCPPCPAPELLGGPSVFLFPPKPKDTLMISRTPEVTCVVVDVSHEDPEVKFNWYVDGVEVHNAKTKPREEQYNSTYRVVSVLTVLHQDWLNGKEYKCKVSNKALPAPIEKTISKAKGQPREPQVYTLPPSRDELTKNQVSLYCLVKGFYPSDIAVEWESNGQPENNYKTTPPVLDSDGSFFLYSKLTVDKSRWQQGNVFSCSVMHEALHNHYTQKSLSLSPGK
Experimental: In this screening method, Biacore sensor chips were derivatized with anti-human IgG. After capture of VLA4-Fc or LPAM-1-Fc ligands on these surfaces, 2D-VCAM-1 variant polypeptides in buffer were allowed to flow over the ligand-coated sensor chips. The ability of a 2D-VCAM variant polypeptide to bind to a specific binding partner (i.e., VLA4-Fc or LPAM-1-Fc) was evaluated. Control protein (i.e., human 2D-VCAM-1 polypeptide (SEQ ID NO:2) or Q38L-2D-VCAM-1 polypeptide (SEQ ID NO:10)), was also allowed to flow over the ligand-coated sensor chips and the abilities of these molecules to bind to VLA4-Fc or LPAM-1-Fc were similarly evaluated for comparison. Using the Biacore system, the association (kₒₙ) and dissociation (koff) rate constant of the protein of interest binding to VLA4-Fc or LPAM-1-Fc ligands can be evaluated and used to calculate the equilibrium dissociation constant, KD. Variant 2D-VCAM-1 polypeptides having increased binding affinities for VLA4-Fc and/or LPAM-1-Fc, compared to human 2D-VCAM-1 and/or Q38L-2D-VCAM-1, were identified.
All BIACORE analyses were performed on a BIACORE 2000 system or BIACORE 3000 system (GE Healthcare) at room temperature (RT, 25° C.), HBS-P buffer (10 mM Hepes (pH 7.4), 150 mM NaCl, 0.005% surfactant P20) supplemented with 1 mM MnCl₂ (HBS-P-Mn) was used as the flow buffer for all experiments except where indicated.
Table 6B presents binding affinities of representative 2D-VCAM-1 variant polypeptides of the invention to LPAM-1-Fc when retested with new polypeptide preparations and new LPAM-1-Fc ligand and measured by the standard BICORE assay described above. The controls human 2D-VCAM-1 or the Q38L 2D-VCAM-1 polypeptide was not reassayed.

[3] = target: T1, human VLA4-Fc (alpha4-Fc/beta1-Fc …); experiment: SPR (BIACORE), retest with new polypeptide preparations and new VLA4-Fc
Experimental: (§1) The kinetic 2D-VCAM-1 assay measures binding kinetics of a dimeric ligand (e.g., VLA-Fc fusion protein or LPAM-1-Fc fusion protein) coated to sensor chips and monomeric analyte (e.g., 2D-VCAM-1 variant polypeptides) in the mobile phase. Goat anti-human IgG antibody (Jackson ImmunoResearch, Catalog No. 105-005-098) was immobilized on CM-5 sensor chips (GE Healthcare, Catalog No. BR-1000-14) according to the manufacturer's protocol. Antibody was diluted to 30 μg/ml in immobilization buffer (10 mM sodium acetate, pH 5.0 (GE Healthcare, Catalog No. BR-1003-51)). […] Un-reacted sites were quenched with 35 μl of 1 M ethanolamine-HCl pH 8.5 (GE Healthcare, Catalog No. BR-1000-50). This procedure typically yielded 15,000 response units (RU) of coupled antibody. VLA4-Fc or LPAM-1-Fc, prepared as described in Examples 3 and 4, respectively, were bound to antibody-coated sensor chips by injection of 20 μl of ligand solution (20 μg/ml protein in HBS-P-Mn buffer at a flow rate of 10 μl/min). Ligand capture levels were typically 200-300 RU. 2D-VCAM-1 variant polypeptides were diluted in HBS-P-Mn and flowed over ligand-coated sensor chips for 2 min at 30 μl/min, followed by 5 min incubation with in HBS-P-Mn containing no protein at the same flow rate. For 2D-VCAM-1 variant polypeptides having very slow dissociation rates from VLA4-Fc or LPAM-1-Fc, kinetic assays were also conducted using longer dissociation times (e.g., 20 min). Rmax signal levels for 2D-VCAM-1 variant polypeptides ranged from approximately 5-25 RU. Regeneration between cycles was performed by 200 sec incubation with 10 mM glycine buffer (pH 1.7) at 50 μl/min. New chips were subjected to 4-5 cycles of capture/binding/regeneration prior to use in actual experiments. Data from a reference cell containing goat anti-human IgG capture antibody alone was subtracted from data obtained from flow cells containing captured VLA4-Fc or LPAM-1-Fc. Typically, 8 dilutions of 2D-VCAM-1 variant polypeptides ranging from 150 nM to 0.069 nM were analyzed against a blank reference (HBS-P-Mn buffer alone).

[4] = target: T2, human LPAM-1-Fc (alpha4-Fc/beta7-Fc …); experiment: SPR (BIACORE), LPAM-1-Fc captured by anti-human IgG, 1 mM MnCl2, 1:1 Langmuir
Experimental: as §1

T1 sequence (chain, as listed by the source limits assumed, form in doubt, chain 1 of 2): as the sequence (chain, as listed by the source limits assumed, chain 1 of 2) above
T1 sequence (chain, as listed by the source limits assumed, form in doubt, chain 2 of 2): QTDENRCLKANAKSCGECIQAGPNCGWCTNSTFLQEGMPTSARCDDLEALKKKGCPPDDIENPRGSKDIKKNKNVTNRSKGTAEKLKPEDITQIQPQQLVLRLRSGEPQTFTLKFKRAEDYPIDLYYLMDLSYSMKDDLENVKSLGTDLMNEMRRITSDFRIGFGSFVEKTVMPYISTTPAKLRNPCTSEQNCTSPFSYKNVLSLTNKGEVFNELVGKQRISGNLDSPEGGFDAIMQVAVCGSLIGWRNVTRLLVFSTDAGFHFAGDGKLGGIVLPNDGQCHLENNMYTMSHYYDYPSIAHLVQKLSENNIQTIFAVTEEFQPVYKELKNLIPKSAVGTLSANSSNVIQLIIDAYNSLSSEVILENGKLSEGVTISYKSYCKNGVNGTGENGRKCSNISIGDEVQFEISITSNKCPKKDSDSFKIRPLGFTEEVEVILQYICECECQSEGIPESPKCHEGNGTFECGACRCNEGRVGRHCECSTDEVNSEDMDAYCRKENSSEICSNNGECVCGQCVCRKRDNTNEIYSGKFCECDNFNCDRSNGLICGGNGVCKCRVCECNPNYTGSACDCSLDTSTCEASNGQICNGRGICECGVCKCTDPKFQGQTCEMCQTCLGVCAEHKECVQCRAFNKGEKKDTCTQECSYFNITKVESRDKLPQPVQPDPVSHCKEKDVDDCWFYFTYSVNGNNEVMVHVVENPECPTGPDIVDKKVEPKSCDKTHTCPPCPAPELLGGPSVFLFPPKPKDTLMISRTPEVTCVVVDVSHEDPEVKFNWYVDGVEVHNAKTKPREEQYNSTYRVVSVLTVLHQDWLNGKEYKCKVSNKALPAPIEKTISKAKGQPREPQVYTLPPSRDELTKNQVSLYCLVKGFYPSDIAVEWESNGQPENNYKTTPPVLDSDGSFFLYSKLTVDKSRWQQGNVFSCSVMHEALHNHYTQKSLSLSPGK

B1: 2D-VCAM-1 variant Clone 46 (ligand)
chain: FKIETTPESRYLAQIGDSVSLTCSTTGCESPFFSWRPQLDAPLNGKVTNEGTTSTLTMNPVSFGNEHSYLCTATCESRKLEKGIQVEIYSFPKDPEIHLSGPLEAGKPITVKCSVADVYPFDRLEIDLLKGDHLMKSQEFLEDADRKSLETKSLEVTFTPVIEDIGKVLVCRAKLHIDEMDSVPTVRQAVKELQVYISP
notes: also called Clone 046; not shown: His tag
fold-improvement in binding relative to Q38L-2D-VCAM-1 [1]: 21 fold | fold-improvement in binding relative to human 2D-VCAM-1 [1]: 172 fold | Kd [2]: 77 nM | Kd [3]: 1.95 nM | Kd [4]: 27.2 nM | binding affinity for LPAM-1-Fc relative to human 2D-VCAM-1 [4]: 9 fold

B4: 2D-VCAM-1 variant Clone 47 (ligand)
chain: B1 chain with Q38L, A41S
notes: also called Clone 047; not shown: His tag
fold-improvement in binding relative to Q38L-2D-VCAM-1 [1]: 16 fold | fold-improvement in binding relative to human 2D-VCAM-1 [1]: 128 fold | Kd [2]: 40 nM | Kd [3]: 0.68 nM | Kd [4]: 6.54 nM | binding affinity for LPAM-1-Fc relative to human 2D-VCAM-1 [4]: 38 fold

B5: 2D-VCAM-1 variant Clone 59 (ligand)
chain: B1 chain with Q38L, A41S, L141F, D145A, R146W
notes: also called Clone 059; not shown: His tag
fold-improvement in binding relative to Q38L-2D-VCAM-1 [1]: 34 fold | fold-improvement in binding relative to human 2D-VCAM-1 [1]: 272 fold | Kd [2]: 2.6 nM | Kd [3]: 0.095 nM | Kd [4]: 0.405 nM | binding affinity for LPAM-1-Fc relative to human 2D-VCAM-1 [4]: 612 fold

More lines, in order of falling Kd [4], values ahead:

fold-improvement in binding relative to Q38L-2D-VCAM-1 [1]: 1 fold | fold-improvement in binding relative to human 2D-VCAM-1 [1]: 8 fold | Kd [4]: 20.5 nM | binding affinity for LPAM-1-Fc relative to human 2D-VCAM-1 [4]: 12 fold
B3: Q38L-2D-VCAM-1 (ligand)
chain: B1 chain with P37T, Q38L, L39I, A41S
notes: also called Q38L 2D-VCAM-1 polypeptide; not shown: His tag

Kd [2]: 1.2 nM | Kd [4]: 0.439 nM | binding affinity for LPAM-1-Fc relative to human 2D-VCAM-1 [4]: 565 fold
B2: 2D-VCAM-1 variant Clone 146 (ligand, not shown: small tags and cut ends)
chain: B1 chain with F32L, S34F, Q38L, A41S, T74R, K79S

Reference: patent US20120135912A1 (PERSEID THERAPEUTICS, published 2012)
